Measurements taken from publication PMC7954794, “Protein context shapes the specificity of SH3 domain-mediated interactions in vivo” (Nature Communications, 2021).

B1: YNR007C (protein, UniProt P40344 1-310, looked up)
Autophagy-related protein 3: MIRSTLSSWREYLTPITHKSTFLTTGQITPEEFVQAGDYLCHMFPTWKWNEESSDISYRDFLPKNKQFLIIRKVPCDKRAEQCVEVEGPDVIMKGFAEDGDEDDVLEYIGSETEHVQSTPAGGTKDSSIDDIDELIQDMEIKEEDENDDTEEFNAKGGLAKDMAQERYYDLYIAYSTSYRVPKMYIVGFNSNGSPLSPEQMFEDISADYRTKTATIEKLPFYKNSVLSVSIHPCKHANVMKILLDKVRVVRQRRRKELQEEQELDGVGDWEDLQDDIDDSLRVDQYLIVFLKFITSVTPSIQHDYTMEGW
B2: YPL246C (protein, UniProt Q12270 1-262, looked up)
Rhomboid-type serine protease …: MNWKSYVFPGGHPPAALTTGLVVFLTAIYLLSFIFALREDLSLAPESLFKLQMSRLSLYPLIHLSLPHLLFNVLAIWAPLNLFEETHGTVYTGVFLNLSALFAGILYCLLGKLLYPEALVAGASGWCFTLFAYYSFKESQIRPRTRIFRTDYSIPTLYTPLVLLVAIAVVIPGSSFWGHFFGLCVGYAIGYKESWFNKITPPGWIITKIEKSLDGLIRLIPWGIKYYRDEDIDRTKDYEPLMSTETPLPLHNDNSGTVLGTA
B3: YBL071W-A (protein, UniProt Q3E840 1-82, looked up)
Diphthamide biosynthesis …: MSTYDEIEIEDMTFEPENQMFTYPCPCGDRFQIYLDDMFEGEKVAVCPSCSLMIDVVFDKEDLAEYYEEAGIHPPEPIAAAA
B4: YOR229W (protein, UniProt Q12206 1-467, looked up)
Transcriptional modulator WTM2: MAKSKSSQGASGARRKPAPSLYQHISSFKPQFSTRVDDVLHFSKTLTWRSEIIPDKSKGTLTTSLLYSQGSDIYEIDTTLPLKTFYDDDDDDDNDDDDEEGNGKTKSAATPNPEYGDAFQDVEGKPLRPKWIYQGETVAKMQYLESSDDSTAIAMSKNGSLAWFRDEIKVPVHIVQEMMGPATRYSSIHSLTRPGSLAVSDFDVSTNMDTVVKSQSNGYEEDSILKIIDNSDRPGDILRTVHVPGTNVAHSVRFFNNHLFASCSDDNILRFWDTRTADKPLWTLSEPKNGRLTSFDSSQVTENLFVTGFSTGVIKLWDARAVQLATTDLTHRQNGEEPIQNEIAKLFHSGGDSVVDILFSQTSATEFVTVGGTGNVYHWDMEYSFSRNDDDNEDEVRVAAPEELQGQCLKFFHTGGTRRSSNQFGKRNTVALHPVINDFVGTVDSDSLVTAYKPFLASDFIGRGYDD
B5: YMR080C (protein, UniProt P30771 1-971, looked up)
ATP-dependent helicase NAM7: MVGSGSHTPYDISNSPSDVNVQPATQLNSTLVEDDDVDNQLFEEAQVTETGFRSPSASDNSCAYCGIDSAKCVIKCNSCKKWFCNTKNGTSSSHIVNHLVLSHHNVVSLHPDSDLGDTVLECYNCGRKNVFLLGFVSAKSEAVVVLLCRIPCAQTKNANWDTDQWQPLIEDRQLLSWVAEQPTEEEKLKARLITPSQISKLEAKWRSNKDATINDIDAPEEQEAIPPLLLRYQDAYEYQRSYGPLIKLEADYDKQLKESQALEHISVSWSLALNNRHLASFTLSTFESNELKVAIGDEMILWYSGMQHPDWEGRGYIVRLPNSFQDTFTLELKPSKTPPPTHLTTGFTAEFIWKGTSYDRMQDALKKFAIDKKSISGYLYYKILGHQVVDISFDVPLPKEFSIPNFAQLNSSQSNAVSHVLQRPLSLIQGPPGTGKTVTSATIVYHLSKIHKDRILVCAPSNVAVDHLAAKLRDLGLKVVRLTAKSREDVESSVSNLALHNLVGRGAKGELKNLLKLKDEVGELSASDTKRFVKLVRKTEAEILNKADVVCCTCVGAGDKRLDTKFRTVLIDESTQASEPECLIPIVKGAKQVILVGDHQQLGPVILERKAADAGLKQSLFERLISLGHVPIRLEVQYRMNPYLSEFPSNMFYEGSLQNGVTIEQRTVPNSKFPWPIRGIPMMFWANYGREEISANGTSFLNRIEAMNCERIITKLFRDGVKPEQIGVITPYEGQRAYILQYMQMNGSLDKDLYIKVEVASVDAFQGREKDYIILSCVRANEQQAIGFLRDPRRLNVGLTRAKYGLVILGNPRSLARNTLWNHLLIHFREKGCLVEGTLDNLQLCTVQLVRPQPRKTERPMNAQFNVESEMGDFPKFQDFDAQSMVSFSGQIGDFGNAFVDNTELSSYINNEYWNFENFKSAFSQKQNRNEIDDRNLYQEEASHLNSNFARELQREEQKHELSKDFSNLGI

Columns and labels:
ABP1 = assay: DHFR-PCA on solid medium, bait ABP1 (Fig. 1B); format: cell-based, Saccharomyces cerevisiae; settings: bait ABP1, label = prey; for medrep (log2 median colony size normalized to plate background, PCA score): 2-4 replicates; for Ratio (SH3-deleted/WT medrep): only significant differences showed, PPIs completely lost have a ratio of 0.1 and the gained PPIs 2.5
Source text: Supplement 41467_2021_21873_MOESM8_ESM.xlsx, sheet "Fig1B" | column: medsize; medrep; Ratio; Score

Abp1 PPIs = assay: DHFR-PCA of Abp1 SH3-swapped baits (Fig. 2B-D, S2C, S2F); format: cell-based, Saccharomyces cerevisiae; settings: Fig2B; bait ABP1, label = prey; Replicates 4
Source text: Having determined that multiple PPIs require SH3s, we asked whether the latter establish PPI specificity independently from their host proteins by swapping domains (Fig. 2A). Using the second round of genome editing, we individually replaced Abp1 SH3 with the 27 yeast SH3s and 3 human Abp1 orthologs’ SH3s (CTTN, HCLS1, and DBNL, Fig. 2B). The reintroduction of its own SH3 (Abp1SH3 in Abp1) reconstitutes almost perfectly Abp1’s interaction profile (Kendall’s τ = 0.93, Fig. 2B). […] No homologous SH3 domain fully re-establishes the normal Abp1 PPI profile (Fig. 2B and Supplementary Fig. 2C). However, we observe a significant correlation (cophenetic correlation = 0.20, p value = 0.005, Fig. 2C) between the similarity of PPI profiles (Fig. 2B) and the sequence similarity of the SH3s. […] Nonetheless, a subset of SH3-dependent PPIs is only observed with the endogenous domain. For instance, Hua2 and App1, both well-characterized partners of Abp1[14],[18],[19], are only detected when Abp1 contains its own SH3 (WT or swapped via editing). A given SH3 may therefore not be fully replaceable with other paralogous or orthologous domains. This pattern is confirmed by cellular growth phenotypic analyses (Supplementary Fig. 2D, E). PPIs, SH3 sequence similarity, and growth profiles under stress conditions are correlated (Supplementary Fig. 2D, E). This relationship is particularly clear when analyzing growth on media supplemented with hygromycin.
The stuffing of YSC84 SH3 rendered the strain sterile and was therefore not used for this study as the assays require crosses. For genes containing two SH3s (BZZ1 and BEM1), a combination of this first stuffer with a second one ([…]) coding for a highly similar linker ([…]) was used, which allowed targeting each SH3 position independently. The two N-terminal domains of SLA1, which are separated by six nucleotides, were stuffed by a single stuffer. Cells containing pCAS were selected via the G418 resistance cassette from the plasmid on YPD plates (YPD + NAT 100 μg/ml (DHFR F[1,2] selection) + G418 200 µg/mL (Bioshop Canada)). Colonies were randomly selected and grown in YPD media without G418 to allow plasmid loss. The correct insertion of the stuffer was validated by PCR and Sanger sequencing. The SH3-swapped, -shuffled, and -mutated strains were constructed following a second CRISPR–Cas9 editing step with the same procedures. The stuffer sequences were targeted by specific gRNAs (one gRNA per stuffer) and replaced by PCR amplified specific SH3 (with 40 bp homology arms) or libraries of mutated SH3 domains for Deep Mutational Scanning (DMS) with 78 bp flanking homology regions. Validation of the SH3 domain insertions was done as we previously described except for DMS libraries (see below).
The overall DHFR-PCA pipeline is based on Tarassov et al.[43] and the procedures have also been published as a visualized protocol. The screens were performed with robotically manipulated pin tools (BM5-SC1, S&P Robotics Inc.). First, the preys were cherry-picked from 96-well plates to omnitrays in a 384 format on YPD + HPH solid media. Plates were then combined into the 1536 format on YPD + HPH. The array was constituted of 575 preys previously shown to interact physically with at least one SH3-containing protein as reported in BioGRID V3.4.16 along with 40 negative controls. The prey array comprised a border of control strains of two rows and two columns corresponding to the PPI between LSM8-DHFR F[1,2] and CDC39-DHFR F[3]. This double border was used to remove border effects. Preys are present in duplicate at a randomized position in the 1536 array (except for YAL041W which is present four times per array). Baits were crossed with two prey plates, resulting in four independent bait–prey tests for each PPI. Baits were grown in liquid YPD + NAT and then transferred on solid YPD + NAT omnitrays. They were then replicated on YPD + NAT omnitrays in 1536 array format. […]

Molecule	medrep (log2 median colony size normalized to plate background, PCA score) (ABP1)	Ratio (SH3-deleted/WT medrep) (ABP1)	medrep (log2 median colony size normalized to plate background) (Abp1 PPIs)	medsize (median colony size) (Abp1 PPIs)
B1	1.566	2.5	–	–
B2	1.384	2.5	–	–
B3	1.99	1.369	1.454	388
B4	1.855	2.5	–	–
B5	1.542	2.5	–	–
